Measured values reported in IntAct's records for PubMed 29039417.

B1: Protein PTHB1 (Homo sapiens), Q3SYG4 (parent)
chain: MSLFKARDWWSTILGDKEEFDQGCLCLANVDNSGNGQDKIIVGSFMGYLRIFSPHPAKTGDGAQAEDLLLEVDLRDPVLQVEVGKFVSGTEMLHLAVLHSRKLCVYSVSGTLGNVEHGNQCQMKLMYEHNLQRTACNMTYGSFGGVKGRDLICIQSMDGMLMVFEQESYAFGRFLPGFLLPGPLAYSSRTDSFLTVSSCQQVESYKYQVLAFATDADKRQETEQQKLGSGKRLVVDWTLNIGEQALDICIVSFNQSASSVFVLGERNFFCLKDNGQIRFMKKLDWSPSCFLPYCSVSEGTINTLIGNHNNMLHIYQDVTLKWATQLPHIPVAVRVGCLHDLKGVIVTLSDDGHLQCSYLGTDPSLFQAPNVQSRELNYDELDVEMKELQKIIKDVNKSQGVWPMTEREDDLNVSVVVSPNFDSVSQATDVEVGTDLVPSVTVKVTLQNRVILQKAKLSVYVQPPLELTCDQFTFEFMTPDLTRTVSFSVYLKRSYTPSELEGNAVVSYSRPTDRNPDGIPRVIQCKFRLPLKLICLPGQPSKTASHKITIDTNKSPVSLLSLFPGFASQSDDDQVNVMGFHFLGGARITVLASKTSQRYRIQSEQFEDLWLITNELILRLQEYFEKQGVKDFACSFSGSIPLQEYFELIDHHFELRINGEKLEELLSERAVQFRAIQRRLLARFKDKTPAPLQHLDTLLDGTYKQVIALADAVEENQGNLFQSFTRLKSATHLVILLIALWQKLSADQVAILEAAFLPLQEDTQELGWEETVDAAISHLLKTCLSKSSKEQALNLNSQLNIPKDTSQLKKHITLLCDRLSKGGRLCLSTDAAAPQTMVMPGGCTTIPESDLEERSVEQDSTELFTNHRHLTAETPRPEVSPLQGVSE
partner: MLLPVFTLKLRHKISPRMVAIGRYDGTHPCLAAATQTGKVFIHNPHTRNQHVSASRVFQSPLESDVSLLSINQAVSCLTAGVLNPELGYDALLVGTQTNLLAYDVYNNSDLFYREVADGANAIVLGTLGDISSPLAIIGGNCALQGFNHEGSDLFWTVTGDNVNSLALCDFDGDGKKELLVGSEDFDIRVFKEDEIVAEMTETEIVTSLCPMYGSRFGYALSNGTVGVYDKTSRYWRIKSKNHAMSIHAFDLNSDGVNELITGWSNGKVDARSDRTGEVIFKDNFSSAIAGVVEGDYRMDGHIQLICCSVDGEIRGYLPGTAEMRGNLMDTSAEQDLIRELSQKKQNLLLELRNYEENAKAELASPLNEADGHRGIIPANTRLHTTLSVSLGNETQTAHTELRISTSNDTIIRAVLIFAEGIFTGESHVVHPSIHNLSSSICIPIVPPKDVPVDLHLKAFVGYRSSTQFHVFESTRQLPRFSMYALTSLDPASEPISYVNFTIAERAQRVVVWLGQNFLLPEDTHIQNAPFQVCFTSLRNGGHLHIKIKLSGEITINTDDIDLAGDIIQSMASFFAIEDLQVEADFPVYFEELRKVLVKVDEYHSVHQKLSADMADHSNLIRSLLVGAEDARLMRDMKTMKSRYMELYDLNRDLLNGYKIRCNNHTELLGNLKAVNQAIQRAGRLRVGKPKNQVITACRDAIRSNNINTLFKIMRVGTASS
B2: Protein PTHB1 (Homo sapiens), Q3SYG4 (parent)
chain: B1 chain
partner: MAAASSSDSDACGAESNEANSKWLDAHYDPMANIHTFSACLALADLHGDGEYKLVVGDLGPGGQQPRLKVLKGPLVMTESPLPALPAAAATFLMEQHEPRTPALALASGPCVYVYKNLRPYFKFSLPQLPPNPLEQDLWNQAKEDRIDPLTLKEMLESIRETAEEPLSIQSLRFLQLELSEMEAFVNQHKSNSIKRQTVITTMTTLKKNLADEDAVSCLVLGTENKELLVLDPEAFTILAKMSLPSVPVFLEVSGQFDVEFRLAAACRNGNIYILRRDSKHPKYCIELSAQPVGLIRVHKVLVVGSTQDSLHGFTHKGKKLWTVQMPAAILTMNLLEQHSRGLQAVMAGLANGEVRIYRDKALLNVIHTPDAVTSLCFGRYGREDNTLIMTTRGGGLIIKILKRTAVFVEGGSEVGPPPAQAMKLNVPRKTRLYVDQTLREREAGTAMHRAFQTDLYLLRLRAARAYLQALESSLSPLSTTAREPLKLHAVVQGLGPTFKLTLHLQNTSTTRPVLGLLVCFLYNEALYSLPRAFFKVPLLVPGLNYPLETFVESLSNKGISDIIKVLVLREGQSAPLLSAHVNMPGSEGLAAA

Variants of: B1
Conditions: with bbs2_human BBS2, Q9BXC9

Variant	effect of a mutation on the interaction
E406K	with no effect
E406A	with no effect
T405A	with no effect
T405E	with no effect
T405K	with no effect
R407E	with no effect
R407A	with no effect

Variants of: B2
Conditions: with bbs1_human BBS1, Q8NFJ9

Variant	effect of a mutation on the interaction
T829A	with no effect
T829E	with no effect
T829K	with no effect
T861E	with no effect
T861A	with no effect
T861K	with no effect
I846E	with no effect
I846K	with no effect
I846A	with no effect
D850E	with no effect
D850K	with no effect
D850A	with no effect
T874A	with no effect
T874K	with no effect
T874E	with no effect
M837V	disrupting interaction strength
M837A	with no effect
M837S	disrupting interaction strength
M837E	with no effect
M837K	with no effect
P875A	with no effect
P875K	with no effect

Variant	effect of a mutation on the interaction
P875E	with no effect
V838A	with no effect
V838K	disrupting interaction strength
V838E	with no effect
T844K	with no effect
T844E	with no effect
T844A	with no effect
L851E	with no effect
L851A	with no effect
L851K	with no effect
P834K	with no effect
P834A	with no effect
P834E	with no effect
V856E	with no effect
V856K	with no effect
V856A	with no effect
P877A	with no effect
P877E	with no effect
P877K	with no effect
T871K	with no effect
T871E	with no effect
T871A	with no effect

Variant	effect of a mutation on the interaction
N866A	with no effect
N866K	with no effect
N866E	with no effect
T865A	with no effect
T865E	with no effect
T865K	with no effect
V879E	with no effect
V879K	with no effect
V879A	with no effect
Q835E	with no effect
Q835K	with no effect
Q835A	with no effect
S886A	with no effect
S886E	with no effect
S886K	with no effect
A832E	with no effect
A832K	with no effect
V885E	with no effect
V885A	with no effect
V885K	with no effect
S855A	with no effect
S855E	with no effect

Variant	effect of a mutation on the interaction
S855K	with no effect
L827E	with no effect
L827K	with no effect
L827A	with no effect
E887A	with no effect
E887K	with no effect
G841E	disrupting interaction strength
G841A	with no effect
G841K	with no effect
E862K	with no effect
E862A	with no effect
Q883A	with no effect
Q883K	with no effect
Q883E	with no effect
T845A	with no effect
T845K	with no effect
T845E	with no effect
T836K	with no effect
T836E	with no effect
